We go through two proteins from paper PMC6104806 (Nature structural & molecular biology, 2018).

Like-named read-outs stand apart in the source and are kept apart here.

Data set [1] concerns the molecule itself. Kind of data set: SEC. (In gel filtration, larger molecules generally elute earlier.)
Data set [2] deals with the molecule itself. The data set can be described thus: SEC. The source holds these as a separate data set.

B1: CmDnm1 (native), mitochondrial fission dynamin from Cyanidioschyzon merolae (natural protein, UniProt Q84Y91 1-768, looked up)
chain: MERLIPIVNKLQDLFAETGLDSPIDLPQIMVVGAQSSGKSSVLENVVGESIFPRGTGIVTRRPIVVQLYCTARERLNQSGAPDNMFNEDGSYVLSDGAPTDPRSIPPGAENQAYAEFLHKPGVRFYNFDDVRAEIERETDRVTGKNKGISPKAINLRVYSPHVVNLTVVDLPGLTKVPVGDQPSDIERLIRAMVLSYIERPNAIILAVHPATMDLATSDALQIARQADPEGRRTLGVITKLDLMDKGTDAMEMLTGKVIPLKLGYIGVICRGPADLRAGKSIQQAREDEIRFFRSHPVYRRLLPQLGTNTLARTLSTLLMKHIRDTLPSIRQKMSQQLAEWRKELQTLGPAFEGADDLGGALLNVINRYSSEFAKSLEGNSQQTVNTQELYGGARINYIFNDIYAKELQSMNAFEGLTREDIRTAIRNATGHRSPLFVPELAFELLVKKQITHFVPPAYSCVDLVYDELVRLALNCETELLQRYENLRSEILACAQNLLRELKQPCLEMVQNLIAMETSYISVNHKDFIGGNKAMSQLVRARMEEEERRTRSAKAANSTDNAANSAPKESNANDNRILQPRRRNQDENAKKNDDARRKDDKSPNKTDASNAEKDARSDRNPRGDPTMDNFFNEADEDEEDGNERRNRGLHTLPSVPEHLKAGEVSSDRDRDDIELIQTLLASYFDVVRVNMMDMVPKAIMSFLVLRARDRMQSRLVADLYKPERMSELLNESSDVAERRATAKRMVDLLQRGMAVINEVRDVHVKEEI
The stoichiometry N is the number of molecules, sites or subunits per partner or assembly. Take B1: in “SEC [1]”, the “stoichiometry N” value was 4.

B2: CmDnm1 GHRS431-434AAAA, self-assembly limiting stalk mutant (natural protein, Cyanidioschyzon merolae, UniProt Q84Y91 1-768, looked up)
chain: MERLIPIVNKLQDLFAETGLDSPIDLPQIMVVGAQSSGKSSVLENVVGESIFPRGTGIVTRRPIVVQLYCTARERLNQSGAPDNMFNEDGSYVLSDGAPTDPRSIPPGAENQAYAEFLHKPGVRFYNFDDVRAEIERETDRVTGKNKGISPKAINLRVYSPHVVNLTVVDLPGLTKVPVGDQPSDIERLIRAMVLSYIERPNAIILAVHPATMDLATSDALQIARQADPEGRRTLGVITKLDLMDKGTDAMEMLTGKVIPLKLGYIGVICRGPADLRAGKSIQQAREDEIRFFRSHPVYRRLLPQLGTNTLARTLSTLLMKHIRDTLPSIRQKMSQQLAEWRKELQTLGPAFEGADDLGGALLNVINRYSSEFAKSLEGNSQQTVNTQELYGGARINYIFNDIYAKELQSMNAFEGLTREDIRTAIRNATAAAAPLFVPELAFELLVKKQITHFVPPAYSCVDLVYDELVRLALNCETELLQRYENLRSEILACAQNLLRELKQPCLEMVQNLIAMETSYISVNHKDFIGGNKAMSQLVRARMEEEERRTRSAKAANSTDNAANSAPKESNANDNRILQPRRRNQDENAKKNDDARRKDDKSPNKTDASNAEKDARSDRNPRGDPTMDNFFNEADEDEEDGNERRNRGLHTLPSVPEHLKAGEVSSDRDRDDIELIQTLLASYFDVVRVNMMDMVPKAIMSFLVLRARDRMQSRLVADLYKPERMSELLNESSDVAERRATAKRMVDLLQRGMAVINEVRDVHVKEEI
As for B2, in the data set “SEC [2]”, the “stoichiometry N” value worked out at 4.
